The RNAGym collection of RNA variant scans (doi:10.7554/elife.80360)

B1: HDV Ribozyme (parent)
chain: GGCCGGCAUGGUCCCAGCCUCCUCGCUGGCGCCGGCUGGGCAACAUUCCGAGGGGACCGUCCCCUCGGUAAUGGCGAAUGGGACCCA

Variants of: B1
Assay: self-cleavage, relative activity (ratio to wild type); higher = more cleavage; co-transcriptional

| Variant | self-cleavage |
| --- | --- |
| G10U G40C | 0.313 |
| G10U G40U | 0.842 |
| G10U G53A | 0.769 |
| G10C C14G | 0.312 |
| G11C G54U | 0.289 |
| G10C G25A | 0.308 |
| G11C G81C | 0.0519 |
| G10A A43U | 0.355 |
| G10A A43G | 0.217 |
| G10A U72G | 0.378 |
| G10A U72C | 0.175 |
| G10C G31C | 0.237 |
| G10C G31A | 0.393 |
| G11C C86U | 0.38 |
| G10C G11U | 0.185 |
| G11C G52C | 0.266 |
| G10U G59A | 0.636 |
| G10A U12C | 0.188 |
| G11A U23G | 0.13 |
| G11A G53A | 0.437 |
| U9G G54A | 0.95 |
| U9G G54C | 0.831 |
| G10C C33A | 0.213 |
| G10A G17A | 0.724 |

| Variant | self-cleavage |
| --- | --- |
| G10A G67A | 0.66 |
| G11C G35U | 0.271 |
| G11A G29U | 0.12 |
| G10A U20G | 0.0791 |
| G11A G82C | 0.0739 |
| U9G G34U | 0.237 |
| G11C G40U | 0.189 |
| G11A C66G | 0.424 |
| G11A C66U | 0.431 |
| G11A C66A | 0.308 |
| G11U A78U | 0.0755 |
| G11U C24G | 0.0966 |
| G11U C24U | 0.111 |
| G10C G68U | 0.778 |
| G10A G38U | 0.0923 |
| G10U C19G | 0.1 |
| G11U C57A | 0.447 |
| U9G U65G | 0.782 |
| G11U C14U | 0.406 |
| G11U C14G | 0.0692 |
| G10U A78U | 0.0554 |
| G10C U20A | 0.0519 |
| G10U C63U | 0.686 |
| G10U C63A | 0.845 |

| Variant | self-cleavage |
| --- | --- |
| G10U C63G | 0.798 |
| G11C C30A | 0.0804 |
| G11A C64A | 0.475 |
| G10A C57U | 0.797 |
| G10U G81C | 0.101 |
| G10U G81U | 0.0791 |
| G11C G39U | 0 |
| G11U A16G | 0.309 |
| G11U A16U | 0.673 |
| U9G C66A | 0.594 |
| G11A C44A | 0.187 |
| G10C U65C | 0.831 |
| G11U C58U | 0.447 |
| G10C G52A | 0.746 |
| G10C G52U | 1.03 |
| G10C A70G | 0.516 |
| G10C C13U | 0.119 |
| G10C U47G | 1.35 |
| G10C U47A | 0.853 |
| G11C A42C | 0.0346 |
| G10U G31A | 0.29 |
| G10U G74U | 0.0594 |
| U9G C63A | 0.935 |
| U9G G81U | 0.437 |

| Variant | self-cleavage |
| --- | --- |
| G11C G82A | 0.262 |
| U9G U47A | 1.16 |
| G10C G39U | 0.808 |
| G10C G39A | 0.259 |
| G10U G68C | 0.564 |
| G10U G68U | 0.727 |
| G10U G68A | 0.584 |
| G10C G59U | 0.815 |
| G11A U47A | 0.249 |
| G10U C13U | 0.122 |
| G11U C66G | 0.397 |
| G11U C66U | 0.249 |
| G10U U72C | 0.193 |
| G11A G55A | 0.499 |
| G10A G54A | 0.591 |
| G10C G40U | 0.776 |
| G10C C64G | 0.997 |
| G10C C64U | 0.892 |
| G10C C64A | 0.504 |
| G11C G34A | 0.108 |
| G11U C26G | 0.527 |
| G10C C18U | 0.396 |
| G10C C18A | 0.0906 |
| G10A G73U | 0.159 |

| Variant | self-cleavage |
| --- | --- |
| G10A C18U | 0.138 |
| G10A C18G | 0.0817 |
| G10A C18A | 0.0567 |
| G10U C58A | 0.873 |
| G10U C58U | 0.982 |
| G11C A56G | 0.172 |
| U9G G53A | 1.03 |
| U9G G53U | 1.1 |
| G10U C75G | 0.0563 |
| G10C C63A | 0.88 |
| G10C C63G | 0.852 |
| G11C A45U | 0.0554 |
| G10U G54A | 0.735 |
| U9G G59C | 1.06 |
| G10C G29U | 0.0707 |
| G10C G29C | 0.155 |
| U9G U12C | 0.923 |
| G11A C32A | 0.0231 |
| G11U C19G | 0.058 |
| G11U C19A | 0.0382 |
| U9G C58A | 1.42 |
| G10U C36A | 0.067 |
| G11C G50A | 0.271 |
| G11C G50U | 0.54 |

| Variant | self-cleavage |
| --- | --- |
| U9G G80C | 0.246 |
| G10C G28C | 0.107 |
| G10C G28U | 0.148 |
| G11A G35A | 0.272 |
| G11A G35C | 0.0536 |
| G11A C63G | 0.514 |
| G11A C63A | 0.345 |
| G11C G74A | 0.117 |
| G11C C41A | 0.185 |
| G11C C84U | 0.18 |
| G11A C19U | 0.073 |
| G11A C19G | 0.0231 |
| G11U C13U | 0.0674 |
| G11C C26U | 0.895 |
| G10U G11A | 0.267 |
| G10A A70G | 0.801 |
| G10A A70C | 0.48 |
| G10A C62G | 0.456 |
| G10U G34U | 0.323 |
| G10U G34C | 0.189 |
| G11U C48U | 0.369 |
| U9G G17A | 0.225 |
| G10C G17U | 0.494 |
| G11U C85A | 0.755 |

| Variant | self-cleavage |
| --- | --- |
| U9G C84U | 0.831 |
| G10A C63U | 0.655 |
| G10A G40A | 0.905 |
| G10A G40U | 0.566 |
| G10A C44G | 0.415 |
| G10A C44U | 0.463 |
| G10U C32G | 0.0554 |
| G10U C32A | 0.1 |
| G11U C15A | 0.155 |
| G11U C15U | 0.258 |
| U9G G11A | 0.346 |
| G11A C15U | 0.479 |
| G11A C86A | 0.535 |
| G11A C86G | 0.306 |
| G10C G35U | 0.374 |
| G10A C75G | 0.086 |
| G11C G38U | 0.0845 |
| G11A U65C | 0.277 |
| G11A U65G | 0.305 |
| G11A C61U | 0.529 |
| U9G C75A | 0.201 |
| U9G C75G | 0.0791 |
| G11C C22G | 0.0386 |
